Where “and” joins values, the source holds several entries; their conditions need not be identical. Identical values can stand only once.
T1: Human MAdCAM (human, UniProt Q13477 19-317, limits assumed)
T1 construct: also called huMAdCAM; human MAdCAM-1
T1 sequence (looked up): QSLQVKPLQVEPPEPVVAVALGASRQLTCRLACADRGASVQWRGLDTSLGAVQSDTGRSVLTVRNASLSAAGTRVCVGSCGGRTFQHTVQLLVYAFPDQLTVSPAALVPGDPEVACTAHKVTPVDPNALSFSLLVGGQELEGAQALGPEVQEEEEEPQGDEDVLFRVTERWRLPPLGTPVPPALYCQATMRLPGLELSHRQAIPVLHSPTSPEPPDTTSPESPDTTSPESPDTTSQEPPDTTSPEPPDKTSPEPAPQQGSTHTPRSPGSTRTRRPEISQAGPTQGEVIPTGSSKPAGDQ

T2: mouse MAdCAM (mouse, UniProt Q61826 22-365, limits assumed)
T2 construct: also called mouse MAdCAM-1
T2 sequence (looked up): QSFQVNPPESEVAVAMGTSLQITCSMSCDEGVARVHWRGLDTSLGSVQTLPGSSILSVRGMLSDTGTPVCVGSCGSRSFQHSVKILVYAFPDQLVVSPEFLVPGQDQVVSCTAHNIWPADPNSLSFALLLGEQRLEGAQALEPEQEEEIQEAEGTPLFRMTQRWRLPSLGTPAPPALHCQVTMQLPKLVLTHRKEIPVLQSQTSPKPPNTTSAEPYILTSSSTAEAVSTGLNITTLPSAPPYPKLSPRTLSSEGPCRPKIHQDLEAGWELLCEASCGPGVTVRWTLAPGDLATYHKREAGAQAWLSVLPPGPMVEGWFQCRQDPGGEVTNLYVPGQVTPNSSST


Assays:
Human MAdCAM [1] = molecular target: T1, Human MAdCAM; assay: BLI Octet, AHC capture
Insulin [2] = molecular target: T3, Insulin (UniProt P01308 25-54; P01308 90-110); assay: ELISA on insulin-coated plate
T3 construct: Polyreactivity antigen; mature insulin has A and B chains; also called human insulin

Insulin [3] = molecular target: T3, Insulin; assay: ELISA on insulin-coated plate, 100 nM
Method: Non-specific DNA and Insulin binding is predictive of poor pharmacokinetics (PK). An immunosorbent plate was coated with dsDNA at a concentration of 1 μg/mL or Insulin at 5 μg/mL in PBS pH 7.4, 75 μl/well, and incubated overnight at 4° C. Wells were washed with PBS pH 7.4 containing 0.05% Tween-20 (wash buffer) three times, and then blocked with 200 μl/well 1% BSA in PBS pH 7.4 (block buffer) for two hours at room temperature. […] The diluted material was added to the DNA/insulin coated plate at 75 μl/well for 1 hour at room temperature. After three washes with wash buffer, a donkey anti-human FcY HRP conjugated polyclonal antibody, diluted to 1:5000 in assay buffer, was added to the plate at 75 μl/well for 1 hr at room temperature. After three washes with wash buffer and three washes with wash buffer (with no tween-20), the assay was developed with TMB, and stopped with 1N HCL. OD 450 nm was measured. The experiment included appropriate controls for non-specific binding of test articles to the plate/block in the absence of DNA or insulin.

cyno MAdCAM = molecular target: T4, cyno MAdCAM (cyno); assay: BLI Octet, AHC capture
T4 construct: also called cynomolgus monkey MAdCAM-1

Human MAdCAM [4] = molecular target: T1, Human MAdCAM; assay: BLI Octet
mouse MAdCAM [5] = molecular target: T2, mouse MAdCAM; assay: BLI Octet
mouse MAdCAM [6] = molecular target: T2, mouse MAdCAM; assay: BLI Octet, AHC capture

Row | binding result (Insulin [2]) | Insulin polyreactivity score (Insulin [3]) | Kd (Human MAdCAM [1]) | koff (Human MAdCAM [1]) | kon (Human MAdCAM [1]) | Binder | also measured
1 | no binding (tested: 100 nM) | 4.73 |  |  |  | MIAB170 (antibody, human IgG1, kappa) heavy: EVQLLESGGGLVQPGGSLRLSCAASGFTFSDFWMHWVRQAPGKGLEWISYISGDSGYTNYADSVKGRFTISRDNSKNTLYLQMNSLRAEDTAVYYCARDRPYYYWMDVWGKGTTVTVSSASTKGPSVFPLAPSSKSTSGGTAALGCLVKDYFPEPVTVSWNSGALTSGVHTFPAVLQSSGLYSLSSVVTVPSSSLGTQTYICNVNHKPSNTKVDKKVEPKSCDKTHTCPPCPAPEAAGAPSVFLFPPKPKDTLMISRTPEVTCVVVDVSHEDPEVKFNWYVDGVEVHNAKTKPREEQYNSTYRVVSVLTVLHQDWLNGKEYKCKVSNKALPAPIEKTISKAKGQPREPQVYTLPPSREEMTKNQVSLTCLVKGFYPSDIAVEWESNGQPENNYKTTPPVLDSDGSFFLYSKLTVDKSRWQQGNVFSCSVMHEALHNHYTQKSLSLSPGGGGGSAPTSSSTKKTQLQLEHLLLDLQMILNGINNYKNPKLTRMLTFKFYMPKKATELKHLQCLEEELKPLEEALNLAPSKNFHLRPRDLISDINVIVLELKGSETTFMCEYADETATIVEFINRWITFSQSIISTLT light: DIQMTQSPSSLSASVGDRVTITCRASQSVSRSLAWYQQKPGKAPKLLIYAASSLQSGVPSRFSGSGSGTDFTLTISSLQPEDFATYYCQQYKSYPVTFGQGTKVEIKRTVAAPSVFIFPPSDEQLKSGTASVVCLLNNFYPREAKVQWKVDNALQSGNSQESVTEQDSKDSTYSLSSTLTLSKADYEKHKVYACEVTHQGLSSPVTKSFNRGEC | binding result (Human MAdCAM [1]): no binding (tested: 1 µM)
2 | no binding (tested: 100 nM) | 2.46 | 8360 nM | 0.543 s⁻¹ | 64800 M⁻¹ s⁻¹ | MIAB153 (antibody, human IgG1, kappa) heavy: EVQLLESGGGLVQPGGSLRLSCAASGFTFSDFWMHWVRQAPGKGLEWISYISGDSGYTNYADSVKGRFTISRDNSKNTLYLQMNSLRAEDTAVYYCARDRPYYYYMDVWGKGTTVTVSSASTKGPSVFPLAPSSKSTSGGTAALGCLVKDYFPEPVTVSWNSGALTSGVHTFPAVLQSSGLYSLSSVVTVPSSSLGTQTYICNVNHKPSNTKVDKKVEPKSCDKTHTCPPCPAPEAAGAPSVFLFPPKPKDTLMISRTPEVTCVVVDVSHEDPEVKFNWYVDGVEVHNAKTKPREEQYNSTYRVVSVLTVLHQDWLNGKEYKCKVSNKALPAPIEKTISKAKGQPREPQVYTLPPSREEMTKNQVSLTCLVKGFYPSDIAVEWESNGQPENNYKTTPPVLDSDGSFFLYSKLTVDKSRWQQGNVFSCSVMHEALHNHYTQKSLSLSPGGGGGSAPTSSSTKKTQLQLEHLLLDLQMILNGINNYKNPKLTRMLTFKFYMPKKATELKHLQCLEEELKPLEEALNLAPSKNFHLRPRDLISDINVIVLELKGSETTFMCEYADETATIVEFINRWITFSQSIISTLT light: not shown | 
3 |  |  | 135 nM and 115 nM and 116 nM and 62.8 nM | 0.0341 s⁻¹ and 0.0351 s⁻¹ and 0.0276 s⁻¹ and 0.0365 s⁻¹ | 252000 M⁻¹ s⁻¹ and 306000 M⁻¹ s⁻¹ and 238000 M⁻¹ s⁻¹ and 581000 M⁻¹ s⁻¹ | PMAB1 (bispecific antibody, human IgG1, kappa, also called Parental molecule; parental PMAB1) heavy: EVQLLESGGGLVQPGGSLRLSCAASGFTFSNSDMSWVRQAPGKGLEWVSGITISGGSTYYADSVKGRFTISRDNSKNTLYLQMNSLRAEDTAVYYCARGRGGSGWLDYWGQGTLVTVSSASTKGPSVFPLAPSSKSTSGGTAALGCLVKDYFPEPVTVSWNSGALTSGVHTFPAVLQSSGLYSLSSVVTVPSSSLGTQTYICNVNHKPSNTKVDKKVEPKSCDKTHTCPPCPAPEAAGAPSVFLFPPKPKDTLMISRTPEVTCVVVDVSHEDPEVKFNWYVDGVEVHNAKTKPREEQYNSTYRVVSVLTVLHQDWLNGKEYKCKVSNKALPAPIEKTISKAKGQPREPQVYTLPPSREEMTKNQVSLTCLVKGFYPSDIAVEWESNGQPENNYKTTPPVLDSDGSFFLYSKLTVDKSRWQQGNVFSCSVMHEALHNHYTQKSLSLSPGGGGGSGGGGSGGGGSEVQLLESGGGLVQPGGSLRLSCAASGFTFSDFWMHWVRQAPGKGLEWISYISGDSGYTNYADSVKGRFTISRDNSKNTLYLQMNSLRAEDTAVYYCARDRPYYYYMDVWGKGTTVTVSSGGGGSGGGGSGGGGSGGGGSDIQMTQSPSSLSASVGDRVTITCRASQSVSRSLAWYQQKPGKAPKLLIYAASSLQSGVPSRFSGSGSGTDFTLTISSLQPEDFATYYCQQYKSYPVTFGQGTKVEIK light: not shown | Kd (Human MAdCAM [4]): 37.6 nM; koff (Human MAdCAM [4]): 0.0398 s⁻¹; kon (Human MAdCAM [4]): 1.06e+06 M⁻¹ s⁻¹; response (Human MAdCAM [4]): 0.0839; Kd (mouse MAdCAM [5]): 124 nM; koff (mouse MAdCAM [5]): 0.0463 s⁻¹; kon (mouse MAdCAM [5]): 374000 M⁻¹ s⁻¹; response (mouse MAdCAM [5]): 0.256; Kd (mouse MAdCAM [6]): 138 nM; koff (mouse MAdCAM [6]): 0.0204 s⁻¹; kon (mouse MAdCAM [6]): 148000 M⁻¹ s⁻¹; response (mouse MAdCAM [6]): 0.139

Second part, the binder before the results:

Row | Binder | binding result (Insulin [2]) | Insulin polyreactivity score (Insulin [3]) | Kd (Human MAdCAM [1]) | koff (Human MAdCAM [1]) | kon (Human MAdCAM [1]) | also measured
4 | PRNT1 (antibody, human IgG1, kappa, also called parent PRNT1; parental molecule PRNT1) heavy: EVQLLESGGGLVQPGGSLRLSCAASGFTFSDFWMHWVRQAPGKGLEWISYISGDSGYTNYADSVKGRFTISRDNSKNTLYLQMNSLRAEDTAVYYCARDRPYYYYMDVWGKGTTVTVSSASTKGPSVFPLAPSSKSTSGGTAALGCLVKDYFPEPVTVSWNSGALTSGVHTFPAVLQSSGLYSLSSVVTVPSSSLGTQTYICNVNHKPSNTKVDKKVEPKSCDKTHTCPPCPAPEAAGAPSVFLFPPKPKDTLMISRTPEVTCVVVDVSHEDPEVKFNWYVDGVEVHNAKTKPREEQYNSTYRVVSVLTVLHQDWLNGKEYKCKVSNKALPAPIEKTISKAKGQPREPQVYTLPPSREEMTKNQVSLTCLVKGFYPSDIAVEWESNGQPENNYKTTPPVLDSDGSFFLYSKLTVDKSRWQQGNVFSCSVMHEALHNHYTQKSLSLSPGGGGGSAPTSSSTKKTQLQLEHLLLDLQMILNGINNYKNPKLTRMLTFKFYMPKKATELKHLQCLEEELKPLEEALNLAPSKNFHLRPRDLISDINVIVLELKGSETTFMCEYADETATIVEFINRWITFSQSIISTLT light: DIQMTQSPSSLSASVGDRVTITCRASQSVSRSLAWYQQKPGKAPKLLIYAASSLQSGVPSRFSGSGSGTDFTLTISSLQPEDFATYYCQQYKSYPVTFGQGTKVEIKRTVAAPSVFIFPPSDEQLKSGTASVVCLLNNFYPREAKVQWKVDNALQSGNSQESVTEQDSKDSTYSLSSTLTLSKADYEKHKVYACEVTHQGLSSPVTKSFNRGEC |  |  |  |  |  | Kd (cyno MAdCAM): 13 nM
5 | MIAB151 (antibody, human IgG1, kappa) heavy: EVQLLESGGGLVQPGGSLRLSCAASGFTFSDFWMHWVRQAPGKGLEWISYISGDSGYTNYADSVKGRFTISRDNSKNTLYLQMNSLRAEDTAVYYCARDRPYYYYMDVWGKGTTVTVSSASTKGPSVFPLAPSSKSTSGGTAALGCLVKDYFPEPVTVSWNSGALTSGVHTFPAVLQSSGLYSLSSVVTVPSSSLGTQTYICNVNHKPSNTKVDKKVEPKSCDKTHTCPPCPAPEAAGAPSVFLFPPKPKDTLMISRTPEVTCVVVDVSHEDPEVKFNWYVDGVEVHNAKTKPREEQYNSTYRVVSVLTVLHQDWLNGKEYKCKVSNKALPAPIEKTISKAKGQPREPQVYTLPPSREEMTKNQVSLTCLVKGFYPSDIAVEWESNGQPENNYKTTPPVLDSDGSFFLYSKLTVDKSRWQQGNVFSCSVMHEALHNHYTQKSLSLSPGGGGGSAPTSSSTKKTQLQLEHLLLDLQMILNGINNYKNPKLTRMLTFKFYMPKKATELKHLQCLEEELKPLEEALNLAPSKNFHLRPRDLISDINVIVLELKGSETTFMCEYADETATIVEFINRWITFSQSIISTLT light: not shown | no binding (tested: 100 nM) | 3.63 | 2960 nM | 0.292 s⁻¹ | 98700 M⁻¹ s⁻¹ | 
